The text below walks through data of FireProtDB (doi:10.1110/ps.041111405).

For this data set the following is noted: Homo sapiens; pH 7; 37 °C; GdnHCl; Fluorescence; Sodium phosphate 10 mM; transition: 3; whole UniProt chain shown.

B1: Gamma-crystallin D wild type, P07320 (protein)
chain: MGKITLYEDRGFQGRHYECSSDHPNLQPYLSRCNSARVDSGCWMLYEQPNYSGLQYFLRRGDYADHQQWMGLSDSVRSCRLIPHSGSHRIRLYEREDYRGQMIEFTEDCSCLQDRFRFNEIHSLNVLEGSWVLYELSNYRGRQYLLMPGDYRRYQDWGATNARVGSLRRVIDFS
With B1, the denaturant m value came to 3.1 kcal/mol/M, the “denaturant midpoint (higher = more stable)” value was 2.8 M and the unfolding free energy was 8.9 kcal/mol.
